Positions count from the first letter of the chain named.
B1: LIBC528116-1 (antibody, IgG1, V domains shown)
VH: QVQLQESGPGLVKPSQTLSLTCTVSGGSIRRGGDYWAWIRQHPGKGLEWIGHVYYTGSTNYNPRFKDRATISVNTYKNQFSLKLSSVTAADTAVYYCARNYDTVTGYSYYYYGMDVWGQGTTVTVSS
VL: DIQLTQSPSTLSASVGDRVTITCRASQSISNYLNWYQQKPGKAPKLLIYAASSLHSGVPSRFSGSGSGTDFTLTISSLQPEDFASYYCQQYQSYPLTFGQGTKVEIKR
notes: also called 37940-4
B2: LIBC523844-1 (antibody, V domains shown)
VH: B1 VH with A37S, N60K, R64S, N100D, T103I, V104L
VL: DIVMTQSPLSLPVTPGEPASISCRSSQSLLSSSGANYVDWYLQKPGQSPQLLIYQGSNRASGVPDRFSGSGSGTDFTLKISRVEAEDVGVYYCRQARALPRTFGQGTKVEIKR
B3: LIBC523603-1 (antibody, V domains shown)
VH: B1 VH with Y55Q, T56S, S58Q, N60A, R64N, K66E, D67N, N100D, T103A, T105S
VL: B2 VL with S33Y, A35N, R97V, A98G
B4: LIBC523670-1 (antibody, V domains shown)
VH: B1 VH with Y55Q, S58Q, N60A, R64N, F65L, K66E, D67S, T103V, V104L, T105S
VL: B2 VL with S31T, S33Y, V38L, R94M, R97L, A98Q, L99I
notes: also called LIBC523670-1 + VK2 germline fix
B5: LIBC523857-1 (antibody, V domains shown)
VH: QVQLQESGPGLVKPSQTLSLTCTVSGGSIRRGGDYWSWIRQHPGKGLEWIGHIYQTGQTAYNPRLEGRATISVNTYKNQFSLKLSSVTAADTAVYYCARDYDILTGYSYYYYGMDVWGQGTTVTVSS
VL: B2 VL with S33T, V38L, Q55L, R97V, A98E
B6: LIBC523862-1 (antibody, V domains shown)
VH: B5 VH with Q58S, R64S, E66K
VL: B2 VL with S31H, S33T, Q55L, R97I
B7: LIBC523748-1 (antibody, V domains shown)
VH: B5 VH with I53V, Q55Y, Q58S, A60K, R64S, L65F, N74K
VL: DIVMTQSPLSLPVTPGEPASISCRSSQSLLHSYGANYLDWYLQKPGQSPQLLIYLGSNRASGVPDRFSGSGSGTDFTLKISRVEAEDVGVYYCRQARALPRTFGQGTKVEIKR
B8: LIBC523760-1 (antibody, V domains shown)
VH: B5 VH with I53V, Q58S, A60K, R64K, L65F, E66K
VL: B2 VL with S31T, Q55L, R97V, A98G, L99T
B9: LIBC523815-1 (antibody, V domains shown)
VH: B5 VH with T56S, A60K, R64S, E66K, G67D
VL: B2 VL with S31T, Q55L, A98E, L99Q
B10: LIBC523813-1 (antibody, V domains shown)
VH: B5 VH with I53V, Q55Y, R64K, L65F, E66K, G67D, N74K
VL: B2 VL with Q55L, R94M, A98G, L99I
notes: also called LIBC523813-1 + VK2 germline fix
B11: LIBC523868-1 (antibody, V domains shown)
VH: B5 VH with I53V, Q55Y, T56E, Q58S, R64S, L65F, G67D
VL: B2 VL with S31T, S33Y, A35I, Q55L, R94M, A98Q, L99I
B12: LIBC523797-1 (antibody, V domains shown)
VH: B1 VH with A37S, N60K, R64N, D67G, N100D, T103I, V104L
VL: B2 VL with S31T, S33Y, A35I, R97V, A98G
notes: Expressed as IgG1 SEFL2 mAb

biological target: T1, mouse CB1 (mouse, UniProt P47746 1-473); assay: fold over mock (Table 14)
T1 construct: also called muCB1; murine CB1
T1 sequence (P47746 whole entry): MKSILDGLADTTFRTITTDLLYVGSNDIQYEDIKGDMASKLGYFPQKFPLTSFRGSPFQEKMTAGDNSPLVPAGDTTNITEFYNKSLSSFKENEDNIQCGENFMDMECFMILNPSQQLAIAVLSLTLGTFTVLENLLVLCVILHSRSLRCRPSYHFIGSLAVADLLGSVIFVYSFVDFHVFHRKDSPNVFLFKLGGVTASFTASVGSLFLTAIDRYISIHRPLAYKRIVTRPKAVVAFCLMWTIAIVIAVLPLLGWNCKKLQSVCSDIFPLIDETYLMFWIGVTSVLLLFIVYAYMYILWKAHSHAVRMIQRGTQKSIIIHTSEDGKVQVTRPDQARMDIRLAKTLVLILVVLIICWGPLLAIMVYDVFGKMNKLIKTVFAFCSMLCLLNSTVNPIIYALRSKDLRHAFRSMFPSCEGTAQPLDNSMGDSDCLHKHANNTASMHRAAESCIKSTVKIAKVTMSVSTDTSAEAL

Q: Does B1 bind?
A: no binding

biological target: T2, human cannabinoid receptor type 2 (CB2) (human, UniProt P34972 1-360); assay: fold over mock (Table 14)
T2 construct: also called huCB2; full length hu CB2
T2 sequence (P34972 whole entry): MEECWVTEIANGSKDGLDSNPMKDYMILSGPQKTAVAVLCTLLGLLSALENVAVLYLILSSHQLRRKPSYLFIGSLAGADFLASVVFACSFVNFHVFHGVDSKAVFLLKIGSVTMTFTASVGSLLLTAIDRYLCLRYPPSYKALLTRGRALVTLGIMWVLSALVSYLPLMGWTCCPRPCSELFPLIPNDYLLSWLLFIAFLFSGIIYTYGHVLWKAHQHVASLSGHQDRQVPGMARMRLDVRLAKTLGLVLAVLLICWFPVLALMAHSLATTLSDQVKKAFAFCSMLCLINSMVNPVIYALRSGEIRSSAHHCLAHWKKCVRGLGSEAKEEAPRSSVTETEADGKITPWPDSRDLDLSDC

Q: Does B1 bind?
A: no binding

biological target: T3, His-tagged huCB1-ND (human CB1 in nanodisc) (human); assay: flow cytometry, yeast-displayed IgG, binding/display ratio
T3 construct: CB1 construct of Cell 167(3) (2016) 750-762 expressed in Sf9 cells; POPC:MSP1D1:CB1 480:8:1; also called CB1-nanodisc; huCB1-Nanodisc; not shown: histidine purification tag
T3 sequence (P21554 99-414): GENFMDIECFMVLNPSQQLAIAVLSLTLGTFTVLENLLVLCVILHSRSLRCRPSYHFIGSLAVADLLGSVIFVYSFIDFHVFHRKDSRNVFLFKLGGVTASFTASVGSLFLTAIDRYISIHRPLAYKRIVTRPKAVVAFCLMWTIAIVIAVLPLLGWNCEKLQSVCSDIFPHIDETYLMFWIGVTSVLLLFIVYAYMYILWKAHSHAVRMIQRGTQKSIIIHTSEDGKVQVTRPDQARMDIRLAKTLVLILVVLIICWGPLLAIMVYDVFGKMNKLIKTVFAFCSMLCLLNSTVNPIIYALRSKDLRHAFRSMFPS

Q: B2 was tested. Which “relative binding to 0.2 nM huCB1-ND (relative to 10D10N35Y)” value (“relative binding to 0.2 nM huCB1-ND” for short) did it give?
A: 3.78 fold

Q: Which “relative binding to 0.2 nM huCB1-ND” value does the source give for B3 here?
A: 6.05 fold

Q: B4 was tested. Which “relative binding to 0.2 nM huCB1-ND” value did it give?
A: 7.46 fold

Q: Which “relative binding to 0.2 nM huCB1-ND” value does the source give for B5 here?
A: 4.05 fold

Q: B6 was tested. Which “relative binding to 0.2 nM huCB1-ND” value did it give?
A: 5.07 fold

Q: How did the “relative binding to 0.2 nM huCB1-ND” value turn out when B7 was run?
A: 4.41 fold

Q: How did the “relative binding to 0.2 nM huCB1-ND” value turn out when B8 was run?
A: 4.19 fold

Q: Which “relative binding to 0.2 nM huCB1-ND” value does the source give for B9 here?
A: 6.15 fold

Q: B10 was tested. Which “relative binding to 0.2 nM huCB1-ND” value did it give?
A: 3.38 fold

Q: How did the “relative binding to 0.2 nM huCB1-ND” value turn out when B11 was run?
A: 6.28 fold

biological target: T3, His-tagged huCB1-ND (human CB1 in …); assay: flow cytometry, yeast-displayed IgG, huCB1-ND over empty-ND

Q: B2 was tested. Which “specific huCB1 binding (CB1 ND/Empty ND ratio)” value did it give?
A: 8.58 ratio

Q: B3 was tested. Which “specific huCB1 binding (CB1 ND/Empty ND ratio)” value did it give?
A: 19.4 ratio

Q: With B4 as the binder, how does the “specific huCB1 binding (CB1 ND/Empty ND ratio)” value read?
A: 23 ratio

Q: B5 was tested. Which “specific huCB1 binding (CB1 ND/Empty ND ratio)” value did it give?
A: 13.9 ratio

Q: With B6 as the binder, how does the “specific huCB1 binding (CB1 ND/Empty ND ratio)” value read?
A: 13.6 ratio

Q: How did the “specific huCB1 binding (CB1 ND/Empty ND ratio)” value turn out when B7 was run?
A: 5.33 ratio

Q: For B8, which “specific huCB1 binding (CB1 ND/Empty ND ratio)” value is on record?
A: 7.21 ratio

Q: For B9, which “specific huCB1 binding (CB1 ND/Empty ND ratio)” value is on record?
A: 14.8 ratio

Q: Which “specific huCB1 binding (CB1 ND/Empty ND ratio)” value does the source give for B10 here?
A: 5.79 ratio

Q: For B11, which “specific huCB1 binding (CB1 ND/Empty ND ratio)” value is on record?
A: 13.3 ratio

biological target: T4, GFP-fused huCB1-SMALP (human CB1 in styrene maleic acid lipoparticles) (human, UniProt P21554 1-472); assay: flow cytometry, yeast-displayed IgG, GFP MFI
T4 construct: Prepared as in Luna V. et al. 2018; also called huCB1-GFP-SMALP; wtCB1-SMALP; not shown: GFP fusion
T4 sequence (P21554 whole entry, the tested form may be a part): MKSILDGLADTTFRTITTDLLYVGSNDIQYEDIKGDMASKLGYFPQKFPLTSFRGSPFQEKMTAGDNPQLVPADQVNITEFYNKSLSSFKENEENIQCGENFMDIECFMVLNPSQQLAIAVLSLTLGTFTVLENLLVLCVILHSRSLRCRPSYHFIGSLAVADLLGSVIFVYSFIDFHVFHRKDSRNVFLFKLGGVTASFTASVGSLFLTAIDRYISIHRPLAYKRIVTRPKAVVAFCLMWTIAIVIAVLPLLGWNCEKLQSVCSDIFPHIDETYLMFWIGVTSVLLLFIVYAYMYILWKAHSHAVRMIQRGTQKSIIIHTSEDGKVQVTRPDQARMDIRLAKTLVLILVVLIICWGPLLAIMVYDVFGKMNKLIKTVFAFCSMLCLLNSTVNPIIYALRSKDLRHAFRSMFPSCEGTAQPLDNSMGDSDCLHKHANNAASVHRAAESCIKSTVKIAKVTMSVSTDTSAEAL

Q: With B1 as the binder, how does the “100 nM huCB1-GFP-SMALP binding (normalized to 10D10N35Y)” value read?
A: 5.8 fold

biological target: human cannabinoid receptor 1 (huCB1), full length, expressed on cells (human, UniProt P21554 1-472); assay: cell-based or functional assay
Sequence (P21554 whole entry): as the sequence (P21554 whole entry, the tested form may be a part) above

Q: Which “Antagonist assay IC50 (nM), 2-AG” value does the source give for B12 here?
A: 2.9 nM

Q: What about the “Antagonist assay IC50 (nM), Anandamide” value of the same binder?
A: 10.4 nM

Q: And the “Antagonist assay IC50 (nM), CP 55,940” value?
A: 3.4 nM

Q: What about the “Inverse agonist assay IC50” value of the same binder?
A: 14.1 nM

biological target: T5, huCB1 nanodisc (CB1-ND) (human, UniProt P21554 99-414); assay: Octet BLI; antibody captured by anti-human Fc, CB1-nanodisc in solution, 1:1 model
T5 construct: The His-tagged CB1 is embedded in a POPC lipid nanodisc with MSP1D1 scaffold protein (molar ratio 480:8:1); also called huCB1-ND; #CB1-008
T5 sequence (P21554 99-414 limits assumed): as the sequence (P21554 99-414) above

Q: How did the Kd turn out when B12 was run?
A: 18 nM

biological target: T4, GFP-fused huCB1-SMALP (human CB1 in …); assay: flow cytometry, yeast-displayed IgG, GFP MFI; remark: another data set of the same source

Q: B2 was tested. Which “100 nM huCB1-SMALP binding (normalized to 10D10)” value did it give?
A: 6.69 fold

Q: With B3 as the binder, how does the “100 nM huCB1-SMALP binding (normalized to 10D10)” value read?
A: 4.05 fold

Q: With B4 as the binder, how does the “100 nM huCB1-SMALP binding (normalized to 10D10)” value read?
A: 5.42 fold

Q: How did the “100 nM huCB1-SMALP binding (normalized to 10D10)” value turn out when B5 was run?
A: 4.71 fold

Q: How did the “100 nM huCB1-SMALP binding (normalized to 10D10)” value turn out when B6 was run?
A: 3.97 fold

Q: With B7 as the binder, how does the “100 nM huCB1-SMALP binding (normalized to 10D10)” value read?
A: 6.12 fold

Q: Which “100 nM huCB1-SMALP binding (normalized to 10D10)” value does the source give for B8 here?
A: 5.7 fold

Q: B9 was tested. Which “100 nM huCB1-SMALP binding (normalized to 10D10)” value did it give?
A: 4.55 fold

Q: For B10, which “100 nM huCB1-SMALP binding (normalized to 10D10)” value is on record?
A: 6.32 fold

Q: B11 was tested. Which “100 nM huCB1-SMALP binding (normalized to 10D10)” value did it give?
A: 4.21 fold

Source: patent US20250277029A1 (Amgen, published 2025)
